{"source": "patent US20040175378A1", "about": "“Selected antibody compositions and methods for binding to aminophospholipids” (Board of Regents, The University of Texas System, priority 2002, published 2004)", "key": {"[1]": {"assay": "ELISA binding to anionic phospholipids in 5 mM EDTA (Ca2+ requirement)", "description": "The specificity of the 9D2 antibody binding was validated by using control rat IgM of irrelevant specificity (Pharmingen, San Diego, Calif.). The specificity of annexin V binding to phospholipids, which is Ca^2+-dependent, was determined by diluting the reagent in the DPBS containing 5 mM EDTA. Additional negative controls consisted of washing the plates with the binding buffer containing 0.2% of a detergent Tween 20. This treatment extracts lipids, thus removing the phospholipid that was absorbed to plastic. Neither 9D2 antibody nor annexin V bound to detergent-washed plates."}, "[2]": {"assay": "Binding to heparin, heparan sulfate and DNA"}, "[3]": {"test_system": "Meth A fibrosarcoma", "assay": "3G4 tumor treatment", "assay_type": "in vivo, mouse", "description": "(§1) In the subcutaneous model, mice are typically injected with 1×10^7 cells in 0.2 ml. Mice are not anesthetized, but are restrained using a steady grip of mouse skin exposing the right flank. A 1 ml syringe with a 23 gauge needle is used to inject 1×10^7 cells in 200 μl, just under the skin of the mice and a bleb will be seen. It is not unusual to observe a small amount of fluid leak from the injection site. A twisting motion may be used when withdrawing the needle from the subcutaneous injection to reduce this leakage. Tumor volume is measured by L×W×H.\n(§2) Treatment was repeated 3 times a week. Animals were monitored twice a week for tumor measurements."}, "[4]": {"test_system": "L540 human Hodgkin's lymphoma", "assay": "3G4 tumor treatment", "assay_type": "in vivo, mice", "conditions": "subcutaneous L540 xenografts", "description": "as §1, §2"}, "[5]": {"test_system": "orthotopic MDA-MB-435 breast cancer", "assay": "3G4 and ch3G4 tumor treatment", "assay_type": "in vivo, mice", "description": "Tumors were also established using MD-MBA-435s cells and treated as described above. […] The treatment of large L540 tumors, MDA-MB-231 and MD-MBA-435s tumor cells for 60 days is shown in FIG. 8D, FIG. 8E and FIG. 8F. The antibodies caused tumor vascular injury, thrombosis and necrosis and retarded tumor growth, with no evidence of toxicity.\nMD-MBA-435s lucerifase cells were obtained from Dr. Angels Sierra Jimenez, Barcelona, Spain and were grown in 10% DMEM. Mice were injected with tumor cells as described as above, and at 2 weeks post injection, the tumors were measured and the volume recorded. […] Treatment was initiated by IP injection (800 μg) at day 15 and continued with injections of 200 μg every two to three days until the final injection of 400 μg at day 35. Tumor volumes and mouse body weights were measured on injection days. Mice were sacrificed and perfused with saline for 12 minutes. The organs and tumor were removed, snap-frozen in liquid nitrogen and the tumor sectioned for immunohistochemistical analysis."}, "[6]": {"test_system": "human CMV AD169", "assay": "CMV viral load by plaque assay", "assay_type": "cell-based", "conditions": "for decrease in viral titer: high m.o.i."}, "[7]": {"assay": "Liposome competition for 3G4 binding to immobilized PS", "conditions": "3G4 0.1 μg/ml", "description": "Liposomes were prepared from solutions of 5 mg of a single phospholipid in chloroform. The solutions were dried under nitrogen to form a thin layer in a round-bottomed glass flask. Ten ml of Tris buffer (0.1 M, pH 7.4) were then added and the flask was sonicated five times for 2 min. […] The mixture was added to PS-coated plates (after standard blocking), incubated for 1 hour, washed and the secondary antibody added. After 1 hour, the plates were washed and developed for 5 minutes using OPD."}, "[8]": {"test_system": "bEnd.3 cells", "assay": "Growth of bEnd.3 cells in vitro", "assay_type": "cell-based", "conditions": "20 μg to 40 μg total IgG per well, 48 and 96 hours", "description": "20% DMEM alone (control) or 20% DMEM containing the antibodies (20 μg to 40 μg total IgG per well) was added 4 hours after seeding. Each clone was tested on two separate plates in triplicates. Cells were detached 48 and 96 hours later, the cell count was determined in each well and the average cell number per treatment was calculated."}, "[9]": {"assay": "Toxicity of 3G4 in mice", "assay_type": "in vivo, BALB/c mice", "source_text": "The following parameters were specifically examined.\nThere were no physical signs of toxicity, e.g. hair loss, loss of appetite, etc. […] Marrows in the treated animals were essentially completely cellular (as would be expected for a young mammal). Erythroid, granulocytic, lymphocytic progenitors and megakaryocytes were present in normal numbers.\nMice retain normal physical signs, bone marrow cellularity, white blood cell counts, histology and coagulation functions."}, "[10]": {"test_system": "apoptotic tumor cells", "assay": "Dendritic cell uptake of apoptotic tumor cells", "assay_type": "cell-based", "conditions": "Fc(γ)R mediated internalization of 3G4-ATC complexes"}, "[11]": {"test_system": "mCMV RVG102", "assay": "Survival of mCMV-infected mice", "assay_type": "in vivo, Balb/C mice", "conditions": "1 mg/mouse i.p. day 1, 0.5 mg/mouse every four days until day 26; past 90 days"}, "[12]": {"test_system": "Pichinde virus", "assay_type": "cell-based"}, "[13]": {"test_system": "Tissue Factor (TF)-induced coagulation"}, "[14]": {"conditions": "monkey, in vivo"}, "[15]": {"conditions": "mouse, in vivo, iv"}, "[16]": {"test_system": "RSV long strain", "assay": "RSV-infected A-549 cells, plaque assay", "conditions": "MOI 1, 100 μg antibody per well"}, "[17]": {"test_system": "various tumors", "assay": "3G4 in syngeneic and xenogeneic tumor models, overall"}, "[18]": {"test_system": "human CMV AD169", "assay": "CMV-GFP infected HHF-R2 cells, fluorescent microscopy", "conditions": "MOI 0.01"}, "[19]": {"conditions": "m.o.i. 0.01 pfu/cell, 100 μg/ml"}, "[20]": {"conditions": "100 μg IP three times a week for 2 to 3 weeks"}}, "data": [{"molecule": "3G4: mouse IgG3 kappa monoclonal antibody binding PS and other anionic phospholipids; hybridoma ATCC PTA 4545 (antibody, V domains shown) VH: EVQLQQSGPELEKPGASVKLSCKASGYSFTGYNMNWVKQSHGKSLEWIGHIDPYYGDTSYNQKFRGKATLTVDKSSSTAYMQLKSLTSEDSAVYYCVKGGYYGHWYFDVWGAGTTVTVSSATTTAPSVYPLVP VL: DIQMTQSPSSLSASLGERVSLTCRASQDIGSSLNWLQQGPDGTIKRLIYATSSLDSGVPKRFSGSRSGSDYSLTISSLESEDFVDYYCLQYVSSPPTFGAGTKLELKRADAAPTVFIFGRIP", "values": [{"measurement": "binding to anionic phospholipids in the presence of 5 mM EDTA", "setting": "[1]", "result": "unaffected by the presence of 5 mM EDTA"}, {"measurement": "binding to heparin, heparan sulfate or double or single stranded DNA", "setting": "[2]", "result": "does not bind detectably"}, {"measurement": "mice with long-term complete remissions", "setting": "[3]; Meth A-bearing mice", "result": 50, "unit": "%"}, {"measurement": "growth retardation", "setting": "[3]; syngeneic Meth A", "result": 90, "unit": "%"}, {"measurement": "growth retardation", "setting": "[4]", "result": 65, "unit": "%"}, {"measurement": "tumor growth as opposed to control", "setting": "[5]; i.p. 800 μg day 15, 200 μg every two to three days, 400 μg day 35", "result": "effectively retarded tumor growth"}, {"measurement": "growth retardation", "setting": "[5]; orthotopic MDA-MB-435", "result": 70, "unit": "%"}, {"measurement": "decrease in viral titer", "setting": "[6]; addition delayed to 48 hours", "result": 2, "unit": "log10"}, {"measurement": "decrease in viral titer", "setting": "[6]; addition up to 24 hours after infection", "result": "5-6 log10"}, {"measurement": "decrease in viral titer as compared to GV39G-treatment", "setting": "[6]; m.o.i. 0.01 pfu/cell, 50 μg/ml", "result": 3.5, "unit": "log10"}, {"measurement": "decrease in viral titer as compared to GV39G-treated cells", "setting": "[6]; [19]", "result": 6, "unit": "log10"}, {"measurement": "inhibition of viral replication", "setting": "[6]; [19]", "result": "approximately 99.9999%"}, {"measurement": "inhibition of viral replication compared to GV39G", "setting": "[6]; m.o.i. 3, 50 μg/ml", "result": 3, "unit": "logs"}, {"measurement": "decrease in viral titer as compared to GV39G-treated cells", "setting": "[6]; m.o.i. 3, 100 μg/ml", "result": 5, "unit": "log10"}, {"measurement": "binding to PS adsorbed to ELISA plates in the presence of liposomes", "setting": "[7]", "result": "blocked by liposomes prepared from PS, PA, PI, PG and CL"}, {"measurement": "inhibitory effect on growth of bEnd.3 cells", "setting": "[8]", "result": "particularly effective"}, {"measurement": "blood cell counts", "setting": "[9]; [20]", "result": "no changes in blood cell counts"}, {"measurement": "bodyweight", "setting": "[9]; [20]", "result": "gained weight at the same rate as BBG3 treated mice"}, {"measurement": "toxicity", "setting": "[9]; 1 mg purified 3G4 intraperitoneally", "result": "no toxicity was observed"}, {"measurement": "toxicity", "setting": "[9]; more than 200 mice, 0.1 mg three times a week for 2-3 weeks", "result": "no instance of toxicity has been observed"}, {"measurement": "enhancement of DC uptake of apoptotic tumor cells", "setting": "[10]", "result": 300, "unit": "%"}, {"measurement": "survival", "setting": "[11]", "result": 100, "unit": "%"}, {"measurement": "infected cells", "setting": "[12]", "result": "about one in about a hundred cells"}, {"measurement": "inhibition of Tissue Factor (TF)-induced coagulation", "setting": "[13]", "result": "weak inhibition"}, {"measurement": "side effects", "setting": "[14]", "result": "no side effects have been observed"}, {"measurement": "Volume of distribution", "setting": "[15]", "result": 0.1, "unit": "L/kg"}, {"measurement": "half-life in the α-phase of clearance", "setting": "[15]", "result": 3, "unit": "h"}, {"measurement": "half-life in the β-phase of clearance", "setting": "[15]", "result": 120, "unit": "h"}, {"measurement": "decrease in viral titer", "setting": "[16]", "result": 2, "unit": "log10"}, {"measurement": "toxicity in treated tumor-bearing mice", "setting": "[17]; 100 μg i.p. 3 times a week", "result": "No toxicity was observed"}, {"measurement": "localization after intravenous injection", "setting": "[17]; mice bearing various tumors", "result": "specifically and consistently localized to the tumor, but not to normal organs"}, {"measurement": "entry of the virus into the cells", "setting": "[18]; day 3, 50 and 100 μg/ml", "result": "does not appear to significantly inhibit the entry of the virus"}, {"measurement": "spread of CMV from the original infected cell", "setting": "[18]; day 9, 100 and 50 μg/ml", "result": "restricted to the original singly-infected cell"}]}]}
